Data from the supplement of paper PMC10567573.

B1: PSD2 (parent)
chain: LTHFSRRYCQCNPDDSTSEDGIHT

Variants of: B1
Assay: protein stability index of a GFP-peptide fusion (GPS, HEK-293T) (PSI 1-6); higher = more stable
Details: c terminus: a fixed tail appended
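Note: lentivirally expressed fusions sorted by FACS into six bins by GFP to DsRed ratio, PSI derived from sequencing read proportions per bin multiplied by bin number.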

Variant	protein stability index
LTHFSRRYCQCNPDDSTSEDGNHT	3.98
LTHFSRRYCQCNPDDSTSEDGFHT	2.72
LTHFSRRYCQCNPDDSTSEDGHHT	3.7
LTHFSRRYCQCNPDDSTSEDGTHT	3.59
LTHFSRRYCQCNPDDSTSEDGQHT	3.85
LTHFSRRYCQCNPDDSTSEDGWHT	2.43
LTHFSRRYCQCNPDDSTSEDGGHT	3.66
LTHFSRRYCQCNPDDSTSEDGYHT	3.29
LTHFSRRYCQCNPDDTTSEDGIHT	2.94
LTHFSRRYCQCNPDDETSEDGIHT	3.96
LTHFSRRYCQCNPDDYTSEDGIHT	2.88
LTHFSRRYCQCNPDDVTSEDGIHT	3.15
LTHFSRRYCQCNPDDPTSEDGIHT	2.86
LTHFSRRYCQCNPDDITSEDGIHT	3.18
LTHFSRRYCQCNPDDRTSEDGIHT	2.61
LTHFSRRYCQCNPDDQTSEDGIHT	3.82
LTHFSRRYCQCNPDDLTSEDGIHT	3.15
LTHFDRRYCQCNPDDSTSEDGIHT	4.38
LTHFIRRYCQCNPDDSTSEDGIHT	2.34
LTHFNRRYCQCNPDDSTSEDGIHT	3.69
LTHFLRRYCQCNPDDSTSEDGIHT	3.06
LTHFKRRYCQCNPDDSTSEDGIHT	2.57
LTHFERRYCQCNPDDSTSEDGIHT	3.97
LTHFQRRYCQCNPDDSTSEDGIHT	4.35

Variant	protein stability index
LTHFARRYCQCNPDDSTSEDGIHT	3.43
LTHFWRRYCQCNPDDSTSEDGIHT	1.94
LTHFSRRYCQCNPDDSTSEDGITT	2.75
LTHFSRRYCQCNPDDSTSEDGIFT	2.01
LTHFSRRYCQCNPDDSTSEDGILT	3.73
LTHFSRRYCQCNPDDSTSEDGICT	3.16
LTHFSRRYCQCNPDDSKSEDGIHT	3.6
LTHFSRRYCQCNPDDSMSEDGIHT	3.09
LTHFSRRYCQCNPDDSVSEDGIHT	2.78
LTHFSRRYCQCNPDDSLSEDGIHT	2.66
LTHFSRRYCQCNPDDSQSEDGIHT	3.89
LTHFSRRYCQCNPDDSCSEDGIHT	2.72
LTHFSRRYCQCNPDDSTSEDGIHV	3.36
LTHFSRRYCQCNPDDSTSEDGIHY	2.34
LTHFSRRYCQCNPDDSTSEDGIHI	3.05
LTHFSRRYCQCNPDDSTSEDGIHF	2.08
LTHFSRRYCQCNPDDSTSEDGIHS	3.02
LTHFSRRYCQCNPDDSTSEDGIHR	2.27
LTHFSRRYCQCNPDDSTSEDGIHQ	3.37
LTHFSRRYCQCNPDDSTSEDGIHC	2.68
LTHFSRRYCQCNPDDSTSEDGIHE	4.08
LTHFSRRYCQCNPDDSTSEDGIHW	2.26
LTHFSRRYCQCNPDDSTSEDGIHG	3.27
LTHFSRMYCQCNPDDSTSEDGIHT	3.84

Variant	protein stability index
LTHFSRIYCQCNPDDSTSEDGIHT	3.64
LTHFSRKYCQCNPDDSTSEDGIHT	3.53
LTHFSRVYCQCNPDDSTSEDGIHT	3.13
LTHFSRWYCQCNPDDSTSEDGIHT	2.32
LTHFSRGYCQCNPDDSTSEDGIHT	2.93
LTHFSRQYCQCNPDDSTSEDGIHT	4.57
LTHFSRSYCQCNPDDSTSEDGIHT	3.51
LTHFSRHYCQCNPDDSTSEDGIHT	3.8
LTHFSRRYCQCNPDDSTSHDGIHT	2.95
LTHFSRRYCQCNPDDSTSDDGIHT	3.34
LTHFSRRYCQCNPDDSTSQDGIHT	3.39
LTHFSRRYCQCNPDDSTSSDGIHT	2.44
LTHFSRRYCQCNPDDSTSCDGIHT	3.04
LTHFSRRYCQCNPDDSTSTDGIHT	3.02
LTHFSRRYCQCNPDDSTSIDGIHT	2.2
LTHFSRRYCQCNPDDSTSRDGIHT	1.59
LTHFSRRYCQCNPDDSTSMDGIHT	1.94
LTHFSRRYCQVNPDDSTSEDGIHT	4.5
LTHFSRRYCQRNPDDSTSEDGIHT	4.18
LTHFSRRYCQYNPDDSTSEDGIHT	3.74
LTHFSRRYCQHNPDDSTSEDGIHT	4.17
LTHFSRRYCQMNPDDSTSEDGIHT	3.84
LTHFSRRYCQANPDDSTSEDGIHT	4.22
LTHFSRRYCQINPDDSTSEDGIHT	4.31

Variant	protein stability index
LTHFSRRYCQQNPDDSTSEDGIHT	4.71
LTHFSRRYCQENPDDSTSEDGIHT	4.38
LTHFSRRYCQCNPRDSTSEDGIHT	2.24
LTHFSRRYCQCNPNDSTSEDGIHT	2.45
LTHFSRRYCQCNPSDSTSEDGIHT	2.49
LTHFSRRYCQCNPKDSTSEDGIHT	2.49
LTHFSRRYCQCNPEDSTSEDGIHT	3.02
LTHFSRRYCQCNPLDSTSEDGIHT	2.13
LTHFSRRYCQCNPHDSTSEDGIHT	2.14
LTHFSTRYCQCNPDDSTSEDGIHT	3.78
LTHFSDRYCQCNPDDSTSEDGIHT	4.93
LTHFSLRYCQCNPDDSTSEDGIHT	3.3
LTHFSQRYCQCNPDDSTSEDGIHT	3.49
LTHFSKRYCQCNPDDSTSEDGIHT	3.21
LTHFSHRYCQCNPDDSTSEDGIHT	3.93
LTHFSRRYCQCNPDDSTREDGIHT	1.89
LTHFSRRYCQCNPDDSTDEDGIHT	4.03
LTHFSRRYCQCNPDDSTYEDGIHT	2.35
LTHFSRRYCQCNPDDSTQEDGIHT	3.43
LTHFSRRYCQCNPDDSTVEDGIHT	2.35
LTHFSRRYCQCNPDDSTNEDGIHT	3.67
LTHFSRRYCQCNPDDSTGEDGIHT	2.93
